{
  "source": "patent US20230272064A1",
  "about": "(ACROIMMUNE BIOTECH, published 2023)",
  "binders": {"B1": {"name": "humanized antibody h33D2 (antibody, V domains shown)", "VH": "QVQLVQSGAEVKKPGASVKVSCKASGYSFTGYYMHWVRQAPGQGLEWMGRVNPNNGDTRYNQKFKGRVTMTRDTSISTAYMELSRLRSDDTVVYYCAREGDYDERFAYWGQGTLVTVSA", "VL": "DIQLTQSPSFLSASVGDRVTITCKASQDVGSTVAWYQQKPGKAPKLLIYWASTRHTGVPSRFSGSGSGTEFTLTISSLQPEDFATYYCQQYTSFPYTFGGGTKLEIK", "notes": "IgG4-kappa; human IgG4 heavy chain constant region with S228P in the hinge and human kappa light chain constant region; also called humanized 33D2 mAb; h33D2-light chain and h33D2-heave chain"}, "B2": {"name": "murine anti-human TIGIT monoclonal antibody 33D2 (antibody, V domains shown)", "VH": "EVQLQQSGPDLVKPGASVKISCKASGYSFTGYYMHWVKQSHGKSLEWIGRVNPNNGDTRYNQKFKGKAILTVDKSSSTAYMELRSLTSEDSAVYYCAREGDYDERFAYWGQGTLVTVSA", "VL": "DIVMTQSHKFMSTSLGDRVSITCKASQDVGSTVAWYQQKPGQSPKLLIYWASTRHTGVPDRFTGSGSGTDFTLTITNVQSEDLADYFCQQYTSFPYTFGGGTKLEIK", "notes": "Mouse hybridoma antibody, used as purified protein (Protein G) or as hybridoma supernatant; also called m33D2; 33D2 mAb"}},
  "key": {"[1]": {"target": "T1, recombinant human TIGIT extracellular membrane protein with a C-terminal histidine tag (human, UniProt Q495A1 22-141)", "T1 construct": "extracellular domain; Bought protein; two different product numbers are printed for it; also called TIGIT-His; TIGIT-his", "T1 sequence (looked up)": "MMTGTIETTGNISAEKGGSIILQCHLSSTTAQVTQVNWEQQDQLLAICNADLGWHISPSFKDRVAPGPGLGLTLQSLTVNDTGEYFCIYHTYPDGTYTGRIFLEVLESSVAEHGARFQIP", "test": "BLI (Fortebio-OCTET RED96), mAb captured on FAB2G sensor, TIGIT-His monomer as analyte, global fit, monovalent binding"}, "BTLA Fc fusion protein [2]": {"target": "T2, BTLA Fc fusion protein (Homo sapiens (Human), UniProt Q7Z6A9 31-157)", "T2 sequence": "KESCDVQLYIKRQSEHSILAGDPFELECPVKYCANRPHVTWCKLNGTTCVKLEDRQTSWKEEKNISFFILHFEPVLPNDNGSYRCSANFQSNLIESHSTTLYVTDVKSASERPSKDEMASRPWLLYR", "test": "ELISA, antigen coated at 2 µg/mL"}, "PD-1 Fc fusion protein [3]": {"target": "T3, PD-1 Fc fusion protein (Homo sapiens (Human), UniProt Q15116 25-170)", "T3 sequence (Q15116 25-170 limits assumed)": "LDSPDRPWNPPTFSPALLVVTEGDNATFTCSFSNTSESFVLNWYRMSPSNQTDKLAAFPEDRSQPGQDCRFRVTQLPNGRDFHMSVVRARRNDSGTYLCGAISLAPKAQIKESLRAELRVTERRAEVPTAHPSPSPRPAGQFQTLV", "test": "ELISA, antigen coated at 2 µg/mL"}, "B7-1 Fc fusion protein [4]": {"target": "T4, B7-1 Fc fusion protein (Homo sapiens (Human), UniProt P33681 35-242)", "T4 sequence": "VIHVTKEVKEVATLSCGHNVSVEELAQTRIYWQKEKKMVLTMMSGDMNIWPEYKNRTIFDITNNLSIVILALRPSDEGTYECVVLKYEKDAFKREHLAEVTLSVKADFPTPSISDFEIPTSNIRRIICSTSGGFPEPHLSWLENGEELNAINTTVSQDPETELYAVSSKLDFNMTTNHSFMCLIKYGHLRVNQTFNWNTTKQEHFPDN", "test": "ELISA, antigen coated at 2 µg/mL"}, "CD28 Fc fusion protein [5]": {"target": "T5, CD28 Fc fusion protein (Homo sapiens (Human), UniProt P10747 19-152)", "T5 sequence (P10747 19-152 limits assumed)": "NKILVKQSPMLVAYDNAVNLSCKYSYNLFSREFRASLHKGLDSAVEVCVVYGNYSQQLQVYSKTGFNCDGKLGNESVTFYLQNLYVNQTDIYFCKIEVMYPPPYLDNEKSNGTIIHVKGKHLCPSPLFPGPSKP", "test": "ELISA, antigen coated at 2 µg/mL"}, "PD-L1 Fc fusion protein": {"target": "PD-L1 Fc fusion protein", "sequence (Q9NZQ7 whole entry, the tested form may be a part)": "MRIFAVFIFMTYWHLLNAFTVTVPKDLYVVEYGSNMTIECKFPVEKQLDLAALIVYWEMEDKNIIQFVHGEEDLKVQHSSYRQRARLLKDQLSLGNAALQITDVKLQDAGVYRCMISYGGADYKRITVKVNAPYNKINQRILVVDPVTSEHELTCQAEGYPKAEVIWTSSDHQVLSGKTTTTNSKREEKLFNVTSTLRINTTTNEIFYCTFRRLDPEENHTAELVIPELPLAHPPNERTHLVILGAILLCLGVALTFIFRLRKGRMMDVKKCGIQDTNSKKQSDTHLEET", "test": "ELISA, antigen coated at 2 µg/mL, mAb at 1 µg/mL"}, "BTLA Fc fusion protein [6]": {"target": "T2, BTLA Fc fusion protein", "test": "ELISA, antigen coated at 2 µg/mL, mAb at 1 µg/mL"}, "PD-L2 Fc fusion protein": {"target": "T6, PD-L2 Fc fusion protein", "T6 sequence (Q9BQ51 whole entry, species assumed, looked up)": "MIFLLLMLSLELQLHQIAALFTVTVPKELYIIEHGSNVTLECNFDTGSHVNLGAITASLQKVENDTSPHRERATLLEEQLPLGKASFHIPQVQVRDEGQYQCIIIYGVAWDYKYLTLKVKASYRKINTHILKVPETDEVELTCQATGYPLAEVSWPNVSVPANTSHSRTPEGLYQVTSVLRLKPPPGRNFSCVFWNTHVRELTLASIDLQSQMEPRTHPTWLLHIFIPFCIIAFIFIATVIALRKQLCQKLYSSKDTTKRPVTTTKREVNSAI", "test": "ELISA, antigen coated at 2 µg/mL, mAb at 1 µg/mL"}, "[7]": {"target": "T1, recombinant human TIGIT extracellular …", "test": "ELISA, antigen coated at 2 µg/mL, mAb at 1 µg/mL"}, "CTLA4 Fc fusion protein": {"target": "CTLA4 Fc fusion protein", "sequence (P16410 36-161)": "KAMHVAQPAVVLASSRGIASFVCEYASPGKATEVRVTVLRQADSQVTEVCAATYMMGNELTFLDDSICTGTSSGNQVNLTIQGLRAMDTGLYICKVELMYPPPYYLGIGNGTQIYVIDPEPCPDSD", "test": "ELISA, antigen coated at 2 µg/mL, mAb at 1 µg/mL"}, "PD-1 Fc fusion protein [8]": {"target": "T3, PD-1 Fc fusion protein", "test": "ELISA, antigen coated at 2 µg/mL, mAb at 1 µg/mL"}, "[9]": {"target": "PD1H (PD2) Fc fusion protein", "test": "ELISA, antigen coated at 2 µg/mL, mAb at 1 µg/mL"}, "B7-1 Fc fusion protein [10]": {"target": "T4, B7-1 Fc fusion protein", "test": "ELISA, antigen coated at 2 µg/mL, mAb at 1 µg/mL"}, "[11]": {"target": "PV1- (coated antigen of Table 2)", "test": "ELISA, antigen coated at 2 µg/mL, mAb at 1 µg/mL"}, "CD3 Fc fusion protein": {"target": "CD3 Fc fusion protein", "test": "ELISA, antigen coated at 2 µg/mL, mAb at 1 µg/mL"}, "Sirpa Fc fusion protein": {"target": "Sirpa Fc fusion protein", "sequence (P78324 whole entry, the tested form may be a part)": "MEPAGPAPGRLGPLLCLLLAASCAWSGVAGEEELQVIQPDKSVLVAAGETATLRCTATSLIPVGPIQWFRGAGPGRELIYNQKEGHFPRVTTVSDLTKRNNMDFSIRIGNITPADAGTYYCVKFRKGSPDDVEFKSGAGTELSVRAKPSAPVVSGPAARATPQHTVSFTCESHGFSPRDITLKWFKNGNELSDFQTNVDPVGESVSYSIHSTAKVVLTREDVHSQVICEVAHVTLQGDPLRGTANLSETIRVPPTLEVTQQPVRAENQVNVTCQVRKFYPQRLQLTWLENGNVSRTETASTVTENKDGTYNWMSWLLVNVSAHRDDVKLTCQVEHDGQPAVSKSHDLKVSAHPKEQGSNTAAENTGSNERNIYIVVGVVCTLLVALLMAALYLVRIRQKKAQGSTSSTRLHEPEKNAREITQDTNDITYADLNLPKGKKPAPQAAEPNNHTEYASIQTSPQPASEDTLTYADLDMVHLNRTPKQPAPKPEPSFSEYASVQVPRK", "test": "ELISA, antigen coated at 2 µg/mL, mAb at 1 µg/mL"}, "CD28 Fc fusion protein [12]": {"target": "T5, CD28 Fc fusion protein", "test": "ELISA, antigen coated at 2 µg/mL, mAb at 1 µg/mL"}, "[13]": {"target": "T1, recombinant human TIGIT extracellular …", "test": "competitive ELISA, TIGIT-His coated, competitor biotin-CD155-Fc; average of samples #2 and #4"}, "[14]": {"target": "T7, mouse TIGIT on C57/B6 wild-type mouse lymphocytes (mouse, UniProt P86176 29-249)", "T7 construct": "whole, on cells", "T7 sequence (looked up)": "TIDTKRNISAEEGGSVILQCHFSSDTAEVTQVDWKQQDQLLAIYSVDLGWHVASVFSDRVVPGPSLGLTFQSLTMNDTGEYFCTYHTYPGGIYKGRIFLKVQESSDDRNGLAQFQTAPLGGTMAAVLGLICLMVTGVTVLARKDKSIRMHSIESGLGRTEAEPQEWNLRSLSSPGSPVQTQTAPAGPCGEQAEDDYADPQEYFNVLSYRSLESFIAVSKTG", "test": "flow cytometry on peripheral blood lymphocytes of a wild-type C57 mouse, 33D2 hybridoma supernatant, FITC rabbit anti-mouse IgG, PE anti-mouse CD3e"}, "[15]": {"target": "T1, recombinant human TIGIT extracellular …", "test": "competitive ELISA, TIGIT-His coated, competitor biotin-CD155-Fc"}},
  "note": "Where “and” joins values, the source holds several entries; their conditions need not be identical. Identical values can stand only once.",
  "data": [
    {"binder": "B1", "values": [
      {"measurement": "Kd", "setting": "[1]", "result": 0.843, "unit": "nM"},
      {"measurement": "koff", "setting": "[1]", "result": 0.00023, "unit": "s⁻¹"},
      {"measurement": "kon", "setting": "[1]", "result": 273000, "unit": "M⁻¹ s⁻¹"}
    ]},
    {"binder": "B2", "values": [
      {"measurement": "binding result", "setting": "BTLA Fc fusion protein [2]", "result": "no binding (tested: 1 µg/mL)"},
      {"measurement": "binding result", "setting": "PD-1 Fc fusion protein [3]", "result": "no binding (tested: 1 µg/mL)"},
      {"measurement": "binding result", "setting": "B7-1 Fc fusion protein [4]", "result": "no binding (tested: 1 µg/mL)"},
      {"measurement": "binding result", "setting": "CD28 Fc fusion protein [5]", "result": "no binding (tested: 1 µg/mL)"},
      {"measurement": "OD at 495 nm", "setting": "PD-L1 Fc fusion protein", "result": 0, "unit": "OD"},
      {"measurement": "OD at 495 nm", "setting": "BTLA Fc fusion protein [6]", "result": 0.01, "unit": "OD"},
      {"measurement": "OD at 495 nm", "setting": "PD-L2 Fc fusion protein", "result": 0.04, "unit": "OD"},
      {"measurement": "OD at 495 nm", "setting": "[7]", "result": 1.01, "unit": "OD"},
      {"measurement": "OD at 495 nm", "setting": "CTLA4 Fc fusion protein", "result": 0.02, "unit": "OD"},
      {"measurement": "OD at 495 nm", "setting": "PD-1 Fc fusion protein [8]", "result": 0.01, "unit": "OD"},
      {"measurement": "OD at 495 nm", "setting": "[9]", "result": 0.01, "unit": "OD"},
      {"measurement": "OD at 495 nm", "setting": "B7-1 Fc fusion protein [10]", "result": 0.03, "unit": "OD"},
      {"measurement": "OD at 495 nm", "setting": "[11]", "result": 0.05, "unit": "OD"},
      {"measurement": "OD at 495 nm", "setting": "CD3 Fc fusion protein", "result": 0.01, "unit": "OD"},
      {"measurement": "OD at 495 nm", "setting": "Sirpa Fc fusion protein", "result": 0.01, "unit": "OD"},
      {"measurement": "OD at 495 nm", "setting": "CD28 Fc fusion protein [12]", "result": 0.03, "unit": "OD"},
      {"measurement": "IC50", "setting": "[13]", "result": "0.13 µg/mL and 0.867 nM"},
      {"measurement": "binding result", "setting": "[14]", "result": "no binding"},
      {"measurement": "IC50", "setting": "[15]", "result": "0.135 µg/mL and 0.9 nM and 0.125 µg/mL and 0.833 nM"}
    ]}
  ]
}
